Molecular target: the molecule itself
Assay: immunoblot

B1: Thrombospondin-2 (THBS2), overexpressed in LX-2 cells, in conditioned media (natural protein)
chain: not shown
stoichiometry N: 2
